In assay [1] the target is T1, PD-L1 of the PD-1 [Biotinylated]: PD-L1 Inhibitor Screening ELISA Assay Pair (Acro Biosystems EP-101) (UniProt Q9NZQ7 19-238).
T1 construct: PD-L1 of a bought ELISA assay pair; The construct is described only by the kit's manufacturer; source: bought: Acro Biosystems (EP-101 assay pair)
In words: ELISA; competition: PD-1 [Biotinylated]: PD-L1 Inhibitor Screening ELISA Assay Pair (Acro Biosystems EP-101) with recombinant VSTM2A as inhibitor. As to conditions: both partners purified.

Assay [2] has as its target T2, Recombinant human PD-L1 Fc chimera protein (R&D Systems 156-B7) (human, UniProt Q9NZQ7 19-238).
T2 construct: PD-L1, human, recombinant Fc chimera; also called recombinant human PD-L1 chimera protein; source: bought: R&D Systems (156-B7)
The assay is described as follows: ELISA; titration ELISA; 5 μg/mL PD-L1 Fc chimera immobilised on the plate at 4 °C for 12 h, blocked with 5% BSA; VSTM2A serial dilution (start 100 μg/mL) for 2 h at room temperature; fixed with DTSSP; pNPP, OD405; one-site specific binding fit; apparent KD. The settings on record: both partners purified.

T2 sequence (Q9NZQ7 19-238, change not shown): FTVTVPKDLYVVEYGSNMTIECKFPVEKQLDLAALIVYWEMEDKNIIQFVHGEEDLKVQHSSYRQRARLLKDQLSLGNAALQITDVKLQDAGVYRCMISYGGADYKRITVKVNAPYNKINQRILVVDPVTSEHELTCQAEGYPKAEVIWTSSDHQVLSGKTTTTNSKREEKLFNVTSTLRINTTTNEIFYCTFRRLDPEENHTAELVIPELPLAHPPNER
T1 sequence (Q9NZQ7 19-238): as the sequence (Q9NZQ7 19-238, change not shown) above

B1: Recombinant human VSTM2A His-tag protein (R&D Systems 10037-VT-050, carrier-free) (ligand, UniProt Q8TAG5 25-236, looked up)
chain: SQAKFTEFPRNVTATEGQNVEMSCAFQSGSASVYLEIQWWFLRGPEDLDPGAEGAGAQVELLPDRDPDSDGTKISTVKVQGNDISHKLQISKVRKKDEGLYECRVTDANYGELQEHKAQAYLKVNANSHARRMQAFEASPMWLQDMKPRKNVSAAIPSSIHGSANQRTHSTSSPQVVAKIPKQSPQSGARIATSHGLSVLLLVCGFVKGALL
notes: VSTM2A, human, recombinant; also called recombinant VSTM2A; VSTM2A recombinant protein; source: bought: R&D Systems (10037-VT-050, carrier-free version)
Take B1: the IC50 in assay [1] turned out to be 4.51 nM. The Kd in assay [2] was in the range of 0.7 to 2.5 nM.

Broadly, the IC50 is the concentration that gives 50% inhibition.

The values above are taken from article PMC11573612 (Molecular Therapy, 2024).
